Laboratory results taken from paper PMC12249575.

Molecular target: EcSofic H194A mutant (Sofic from Escherichia coli H397) (Escherichia coli H397)
Test: AUC; sedimentation velocity, 50,000 rpm, 12 °C; samples 0.8 mg/mL in 20 mM Tris-HCl pH 7.5, 100 mM NaCl, 1 mM DTT; SEDFIT

Question: For “EcSofic H194A mutant (Sofic from Escherichia coli H397) (enzyme)”, which stoichiometry N is on record?
Answer: 2
